Source: patent publication US20200397896A1, “Combination Therapies Comprising Daratumumab, Bortezomib, Thalidomide and Dexamethasone and Their Uses” (Janssen Biotech, Inc., priority 2019, published 2020)

Experiments:
[1] = test system: patients with relapsed or refractory multiple myeloma who had received at least 3 prior lines of therapy; experiment: SIRIUS open-label trial, DARZALEX monotherapy efficacy; type: in vivo, human
From the text: (§1) Treatment continued until unacceptable toxicity or disease progression.

[2] = test system: patients with relapsed or refractory multiple myeloma who had received at least 2 different cytoreductive therapies; experiment: GEN501 open-label dose escalation trial, DARZALEX monotherapy efficacy; type: in vivo, human
From the text: as §1

[3] = test system: anti-daratumumab antibodies; experiment: Immunogenicity in clinical trials; type: in vivo, human
From the text: As with all therapeutic proteins, there is the potential for immunogenicity. The detection of antibody formation is highly dependent on the sensitivity and specificity of the assay. Additionally, the observed incidence of antibody (including neutralizing antibody) positivity in an assay may be influenced by several factors including assay methodology, sample handling, timing of sample collection, concomitant medications, and underlying disease. For these reasons, comparison of the incidence of antibodies to daratumumab in the studies described below with the incidence of antibodies in other studies or to other products may be misleading. […] One patient administered DARZALEX as combination therapy, developed transient neutralizing antibodies against daratumumab. However, this assay has limitations in detecting anti-daratumumab antibodies in the presence of high concentrations of daratumumab; therefore, the incidence of antibody development might not have been reliably determined.

[4] = DARZALEX solution pH and storage of diluted solution; type: physicochemical
From the text: Prepare the solution for infusion using aseptic technique as follows: • Calculate the dose (mg), total volume (mL) of DARZALEX solution required and the number of DARZALEX vials needed based on patient actual body weight. • Check that the DARZALEX solution is colorless to pale yellow. […] Infusion bags/containers must be made of either polyvinylchloride (PVC), polypropylene (PP), polyethylene (PE) or polyolefin blend (PP+PE). Dilute under appropriate aseptic conditions. Discard any unused portion left in the vial. • Gently invert the bag/container to mix the solution. […] The diluted solution may develop very small, translucent to white proteinaceous particles, as daratumumab is a protein. […] (59° F.-77° F.) and in room light. Diluted solution may be kept at room temperature for a maximum of 15 hours (including infusion time). • If not used immediately, the diluted solution can be stored prior to administration for up to 24 hours at refrigerated conditions 2° C.-8° C. (36° F.-46° F.) and protected from light.
DARZALEX is supplied as a colorless to pale yellow preservative-free solution for intravenous infusion in single-dose vials. The pH is 5.5.

[5] = test system: patients with newly diagnosed multiple myeloma eligible for ASCT; settings: in vivo
From the text: Safety evaluations will include adverse event monitoring, physical examinations, electrocardiogram monitoring (ECGs), clinical laboratory parameters (hematology and chemistry), vital sign measurements, and Eastern Cooperative Oncology Group (ECOG) performance status.
In general, adverse events that occurred during the induction/consolidation and maintenance stages will be summarized separately. Treatment-emergent adverse events for each stage will be defined as events that occur or worsen after administration of the first dose of during that stage and through 30 days after the last dose of study drug in that stage and before the next phase of treatment begins.
Melphalan 200 mg/m^2 was pre-ASCT high-dose therapy.

[6] = test system: adult patients with relapsed and refractory multiple myeloma; settings: human, in vivo
From the text: (§2) The median duration of exposure was 3.3 months (range: 0.03 to 20.04 months).

[7] = test system: patients with multiple myeloma; settings: human, in vivo
[8] = human, in vivo
[9] = Clinical pharmacokinetics of daratumumab; settings: 1 to 24 mg/kg monotherapy or 1 to 16 mg/kg combination therapy
[10] = test system: adult patients with relapsed and refractory multiple myeloma; experiment: DARZALEX monotherapy safety, three open-label clinical trials
From the text: as §2

[11] = test system: patients with multiple myeloma; experiment: Clinical trials pooled (monotherapy and combination treatments; N=2,066), safety
[12] = monotherapy 16 mg/kg, N = 156, treatment-emergent laboratory abnormality

Substance: DARZALEX: IgG1κ human monoclonal antibody against CD38; HC SEQ ID NO: 9, LC SEQ ID NO: 10
- median duration of response [1]: 7.4 months
- median time to response [1]: 1 month
- Overall response rate (ORR) ([1]; N = 106): (29.2%)
- Partial response (PR) ([1]; N = 106): (17.0%)
- Stringent complete response (sCR) ([1]; N = 106): (2.8%)
- Very good partial response (VGPR) ([1]; N = 106): (9.4%)
- CR, number of patients ([2]; GEN501): 1
- VGPR, number of patients ([2]; GEN501): 3
- median duration of response ([2]; GEN501): not estimable
- median time to response ([2]; GEN501): 1 month
- Overall response rate ([2]; GEN501, 42 patients, 16 mg/kg): 36%
- patients positive for anti-daratumumab antibodies ([3]; 111 evaluable monotherapy patients): none
- patients positive for anti-daratumumab antibodies ([3]; 1,050 evaluable combination therapy patients): 2
- patients who developed transient neutralizing antibodies against daratumumab ([3]; combination therapy): One
- storage time of diluted solution at refrigerated conditions ([4]; 2° C.-8° C., protected from light): up to 24 hours
- storage time of diluted solution at room temperature (including infusion time) ([4]; 15° C.-25° C., room light, diluted in 0.9% Sodium Chloride): ≤ 15 h
- pH of solution ([4]; single-dose vial solution): 5.5
- IRRs Grade 3 or 4 at re-initiation following ASCT [5]: < 1%
- incidence of IRRs, first infusion following ASCT [5]: 11%
- herpes zoster [6]: 3%
- Hepatitis B virus reactivation [7]: less than 1%
- linear clearance, mean±SD [8]: 171.4 ± 95.3 mL/day
- terminal half-life associated with linear clearance, mean±SD [8]: 18 ± 9 days
- time to steady state into the every 4-week dosing period [8]: approximately 5 months
- trough serum concentration (Cmin) at the end of weekly dosing, mean±SD [8]: 573 ± 332 µg/mL
- volume of distribution [8]: 4.7 ± 1.3 L
- area under the concentration-time curve (AUC) versus dose [9]: increases more than proportionally
- Serious adverse reaction: general physical health deterioration ([10]; monotherapy): 3%
- Serious adverse reaction: pneumonia ([10]; monotherapy): 6%
- Serious adverse reaction: pyrexia ([10]; monotherapy): 3%
- discontinuations due to adverse reactions ([10]; monotherapy): 4%
- treatment delay due to adverse reactions ([10]; monotherapy): 15%
- Arthralgia, Any Grade ([10]; monotherapy 16 mg/kg, N = 156): 17%
- Arthralgia, Grade 3 ([10]; monotherapy 16 mg/kg, N = 156): 0%
- Arthralgia, Grade 4 ([10]; monotherapy 16 mg/kg, N = 156): 0%
- Back pain, Any Grade ([10]; monotherapy 16 mg/kg, N = 156): 23%
- Back pain, Grade 3 ([10]; monotherapy 16 mg/kg, N = 156): 2%
- Back pain, Grade 4 ([10]; monotherapy 16 mg/kg, N = 156): 0%
- Chills, Any Grade ([10]; monotherapy 16 mg/kg, N = 156): 10%
- Chills, Grade 3 ([10]; monotherapy 16 mg/kg, N = 156): 0%
- Chills, Grade 4 ([10]; monotherapy 16 mg/kg, N = 156): 0%
- Constipation, Any Grade ([10]; monotherapy 16 mg/kg, N = 156): 15%
- Constipation, Grade 3 ([10]; monotherapy 16 mg/kg, N = 156): 0%
- Constipation, Grade 4 ([10]; monotherapy 16 mg/kg, N = 156): 0%
- Cough, Any Grade ([10]; monotherapy 16 mg/kg, N = 156): 21%
- Cough, Grade 3 ([10]; monotherapy 16 mg/kg, N = 156): 0%
- Cough, Grade 4 ([10]; monotherapy 16 mg/kg, N = 156): 0%
- Decreased appetite, Any Grade ([10]; monotherapy 16 mg/kg, N = 156): 15%
- Decreased appetite, Grade 3 ([10]; monotherapy 16 mg/kg, N = 156): 1%
- Decreased appetite, Grade 4 ([10]; monotherapy 16 mg/kg, N = 156): 0%
- Diarrhea, Any Grade ([10]; monotherapy 16 mg/kg, N = 156): 16%
- Diarrhea, Grade 3 ([10]; monotherapy 16 mg/kg, N = 156): 1%
- Diarrhea, Grade 4 ([10]; monotherapy 16 mg/kg, N = 156): 0%
- Dyspnea, Any Grade ([10]; monotherapy 16 mg/kg, N = 156): 15%
- Dyspnea, Grade 3 ([10]; monotherapy 16 mg/kg, N = 156): 1%
- Dyspnea, Grade 4 ([10]; monotherapy 16 mg/kg, N = 156): 0%
- Fatigue, Any Grade ([10]; monotherapy 16 mg/kg, N = 156): 39%
- Fatigue, Grade 3 ([10]; monotherapy 16 mg/kg, N = 156): 2%
- Fatigue, Grade 4 ([10]; monotherapy 16 mg/kg, N = 156): 0%
- Headache, Any Grade ([10]; monotherapy 16 mg/kg, N = 156): 12%
- Headache, Grade 3 ([10]; monotherapy 16 mg/kg, N = 156): 1%
- Headache, Grade 4 ([10]; monotherapy 16 mg/kg, N = 156): 0%
- Hypertension, Any Grade ([10]; monotherapy 16 mg/kg, N = 156): 10%
- Hypertension, Grade 3 ([10]; monotherapy 16 mg/kg, N = 156): 5%
- Hypertension, Grade 4 ([10]; monotherapy 16 mg/kg, N = 156): 0%
- Infusion reaction, Any Grade ([10]; monotherapy 16 mg/kg, N = 156): 48%
- Infusion reaction, Grade 3 ([10]; monotherapy 16 mg/kg, N = 156): 3%
- Infusion reaction, Grade 4 ([10]; monotherapy 16 mg/kg, N = 156): 0%
- Musculoskeletal chest pain, Any Grade ([10]; monotherapy 16 mg/kg, N = 156): 12%
- Musculoskeletal chest pain, Grade 3 ([10]; monotherapy 16 mg/kg, N = 156): 1%
- Musculoskeletal chest pain, Grade 4 ([10]; monotherapy 16 mg/kg, N = 156): 0%
- Nasal congestion, Any Grade ([10]; monotherapy 16 mg/kg, N = 156): 17%
- Nasal congestion, Grade 3 ([10]; monotherapy 16 mg/kg, N = 156): 0%
- Nasal congestion, Grade 4 ([10]; monotherapy 16 mg/kg, N = 156): 0%
- Nasopharyngitis, Any Grade ([10]; monotherapy 16 mg/kg, N = 156): 15%
- Nasopharyngitis, Grade 3 ([10]; monotherapy 16 mg/kg, N = 156): 0%
- Nasopharyngitis, Grade 4 ([10]; monotherapy 16 mg/kg, N = 156): 0%
- Nausea, Any Grade ([10]; monotherapy 16 mg/kg, N = 156): 27%
- Nausea, Grade 3 ([10]; monotherapy 16 mg/kg, N = 156): 0%
- Nausea, Grade 4 ([10]; monotherapy 16 mg/kg, N = 156): 0%
- Pain in extremity, Any Grade ([10]; monotherapy 16 mg/kg, N = 156): 15%
- Pain in extremity, Grade 3 ([10]; monotherapy 16 mg/kg, N = 156): 1%
- Pain in extremity, Grade 4 ([10]; monotherapy 16 mg/kg, N = 156): 0%
- Pneumonia, Any Grade ([10]; monotherapy 16 mg/kg, N = 156): 11%
- Pneumonia, Grade 3 ([10]; monotherapy 16 mg/kg, N = 156): 6%
- Pneumonia, Grade 4 ([10]; monotherapy 16 mg/kg, N = 156): 0%
- Pyrexia, Any Grade ([10]; monotherapy 16 mg/kg, N = 156): 21%
- Pyrexia, Grade 3 ([10]; monotherapy 16 mg/kg, N = 156): 1%
- Pyrexia, Grade 4 ([10]; monotherapy 16 mg/kg, N = 156): 0%
- Vomiting, Any Grade ([10]; monotherapy 16 mg/kg, N = 156): 14%
- Vomiting, Grade 3 ([10]; monotherapy 16 mg/kg, N = 156): 0%
- Vomiting, Grade 4 ([10]; monotherapy 16 mg/kg, N = 156): 0%
- Anemia, Any Grade [10, 12]: 45%
- Anemia, Grade 3 [10, 12]: 19%
- Anemia, Grade 4 [10, 12]: 0%
- Lymphopenia, Any Grade [10, 12]: 72%
- Lymphopenia, Grade 3 [10, 12]: 30%
- Lymphopenia, Grade 4 [10, 12]: 10%
- Neutropenia, Any Grade [10, 12]: 60%
- Neutropenia, Grade 3 [10, 12]: 17%
- Neutropenia, Grade 4 [10, 12]: 3%
- Thrombocytopenia, Any Grade [10, 12]: 48%
- Thrombocytopenia, Grade 3 [10, 12]: 10%
- Thrombocytopenia, Grade 4 [10, 12]: 8%
- Serious adverse reactions, patients ([10]; monotherapy, 156 patients): 33%
- Grade 3/4 infusion reaction at Week 2 or subsequent infusions ([11]; N=2,066): Less than 1%
- incidence of any grade infusion reactions, Week 2 infusion ([11]; N=2,066): 2%
- incidence of any grade infusion reactions, first (16 mg/kg, Week 1) infusion ([11]; N=2,066): 37%
- incidence of any grade infusion reactions, subsequent infusions (cumulatively) ([11]; N=2,066): 6%
- incidence of infusion modification due to reactions ([11]; N=2,066): 36%
- patients who experienced an infusion reaction ([11]; clinical trials, all patients): approximately half
- persistence of positive indirect antiglobulin test after the last infusion ([11]; human, in vivo): up to 6 months
